Reference: patent US20260049134A1 (UNIVERSITY OF FLORIDA RESEARCH FOUNDATION, published 2026)

How the values were obtained:
[1] = target: T1, GARS, endogenous in H929 multiple myeloma cells (human, UniProt P41250 37-739, limits assumed); assay: flow cytometry, H929 + NT Green siRNA; None 416; surface target GARS putative
T1 construct: Native protein pulled down from H929 lysates; also called Glycyl-tRNA synthetase; GlyRS
T1 sequence: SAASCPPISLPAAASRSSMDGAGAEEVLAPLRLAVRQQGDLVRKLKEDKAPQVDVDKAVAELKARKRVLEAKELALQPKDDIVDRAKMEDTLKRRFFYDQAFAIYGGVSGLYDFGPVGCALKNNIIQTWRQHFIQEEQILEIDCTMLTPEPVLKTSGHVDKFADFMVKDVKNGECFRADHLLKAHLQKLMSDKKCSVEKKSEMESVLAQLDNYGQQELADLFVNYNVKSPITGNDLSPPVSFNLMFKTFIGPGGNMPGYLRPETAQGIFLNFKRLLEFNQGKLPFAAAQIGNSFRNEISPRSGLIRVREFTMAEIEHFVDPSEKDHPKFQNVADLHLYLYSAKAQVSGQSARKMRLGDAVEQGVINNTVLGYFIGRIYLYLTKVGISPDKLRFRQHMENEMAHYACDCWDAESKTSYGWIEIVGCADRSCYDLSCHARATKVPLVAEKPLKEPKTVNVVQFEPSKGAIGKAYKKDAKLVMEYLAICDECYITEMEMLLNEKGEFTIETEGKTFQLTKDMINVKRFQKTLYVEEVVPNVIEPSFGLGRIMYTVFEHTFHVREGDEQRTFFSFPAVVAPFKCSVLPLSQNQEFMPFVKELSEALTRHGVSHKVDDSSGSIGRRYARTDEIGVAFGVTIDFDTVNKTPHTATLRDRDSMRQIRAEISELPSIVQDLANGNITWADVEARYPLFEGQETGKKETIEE

[2] = target: T1, GARS, endogenous in H929 multiple …; assay: flow cytometry, H929 + ICAM1 siRNA; None 455; surface target GARS putative
[3] = target: T1, GARS, endogenous in H929 multiple …; assay: flow cytometry, H929 + NT Green siRNA; None 1.35; surface target GARS putative
[4] = target: T2, CADM1-His (Acro Biosystems) (human, UniProt Q9BY67 45-374); assay: ELISA on coated CADM1-His
T2 construct: Bought; also called CADM1/IGSF4A; not shown: His tag of the bought protein
T2 sequence: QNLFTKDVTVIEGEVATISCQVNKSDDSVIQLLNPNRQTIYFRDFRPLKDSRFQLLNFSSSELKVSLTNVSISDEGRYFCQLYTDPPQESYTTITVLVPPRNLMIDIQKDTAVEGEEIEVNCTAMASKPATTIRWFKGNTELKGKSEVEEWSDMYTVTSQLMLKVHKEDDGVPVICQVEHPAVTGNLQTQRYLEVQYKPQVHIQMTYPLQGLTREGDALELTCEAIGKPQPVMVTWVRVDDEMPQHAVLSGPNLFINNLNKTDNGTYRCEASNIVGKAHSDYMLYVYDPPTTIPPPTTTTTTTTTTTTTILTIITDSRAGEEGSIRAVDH
Description: Recombinant purified ECDs (50-150 ng) of each putative target protein were coated, incubated with 150 ng of the indicated primary antibody, and binding was detected using a peroxidase-conjugated anti-human Fab secondary antibody. Heatmap represents averages of technical triplicates. (8B) Target validation via siRNA knockdown. H929 cells were transfected with siRNA pools targeting the putative antibody targets ICAM1, CADM1, and PTPRG. Cells were then subjected to cognate IgG binding analysis via flow cytometry. (NT, non-targeting siRNA).
ELISA ELISA was conducted as described previously. Briefly, 50-150 ng of antigen was coated overnight in half-area 96-well plates at 4° C., blocked with 3% BSA at 37° C. for 1 h, and 150 ng of chimeric rabbit/human IgG1 was added, incubating for 2 h at 37° C. […] After incubating at 37° C. for 15 min-1 h (depending on intensity of controls), data were acquired using a SpectraMax M5 plate reader (Molecular Devices).

[5] = target: T1, GARS, endogenous in H929 multiple …; assay: flow cytometry, H929 + PTPRG siRNA; None 490; surface target GARS putative

B1: HW-16 chimeric rabbit-human IgG1 LA/LA/PG (antibody, V domains shown)
VH: QSLEESGGRLVTPGTPLTLTCTASGFSLSSYAMSWVRQAPGKGLEWIGTMPTGGGTYYASWAKGRFTISKTSTTVDLQITSPTTEDTATYFCAKHWNIWGPGTLVTISS
VL: DIVLTQTPSSTSTAVGDTVTINCRASQSIGRNLAWFQQKPGQPPKLLIYRASNLASGVPSRFKGSGSRTQFTLTISGVQREDAATYYCLGSYSSSDTAFGGGTELEILR
notes: Fc-silenced (L234A/L235A/P329G) IgG1, kappa; Alexa Fluor 647-labeled in single-step flow cytometry; Cluster C-45
mAb binding (MFI) [1]: 59500
mAb binding (MFI) [2]: 48900
Cells stained (%) [3]: 99.1%
binding result [4]: no binding (tested: 150 ng IgG1 per well)
mAb binding (MFI) [5]: 41600
